Assay results published in PMC8358037 (Communications Biology, 2021).

These binders were tested against combined repetitive oligopeptide domain of C. difficile toxin A (AviTag-His6-CROP) (Clostridium difficile, UniProt P16154 2304-2710) (assay: SPR). Details: both partners purified.

| Binder | Kd |
| --- | --- |
| anti-CROP gastrobody G9 (His6-Thrombin site-SpyTag003-gastrobody) (designed binder) DFVLDNEGNPLENGGTYYILSHPDLFGGIRAAPTGNERCPLTVVQSLYLFDKGIGTIISSPYRIRFIAEGHPLSLKFDSFAVIMLCVGIPTEWSVVEDLPEGPAVKIGENKDAMDGWFRLERVSDDEFNNYKLVFCPQQAEDDKCGDIGISIDHDDGTRRLVVSKNKPLVVQFQKLDKESL | 4.1 µM |
| anti-CROP gastrobody G22 (His6-Thrombin site-SpyTag003-gastrobody) (designed binder) DFVLDNEGNPLENGGTYYILSLQNRFGGIRAAPTGNERCPLTVVQSHDFMDKGIGTIISSPYRIRFIAEGHPLSLKFDSFAVIMLCVGIPTEWSVVEDLPEGPAVKIGENKDAMDGWFRLERVSDDEFNNYKLVFCPQQAEDDKCGDIGISIDHDDGTRRLVVSKNKPLVVQFQKLDKESL | ~50 µM |
| anti-CROP gastrobody T42 (His6-Thrombin site-SpyTag003-gastrobody) (designed binder) DFVLDNEGNPLENGGTYYILSVPHQFGGIRAAPTGNERCPLTVVQSRNKWDKGIGTIISSPYRIRFIAEGHPLSLKFDSFAVIMLCVGIPTEWSVVEDLPEGPAVKIGENKDAMDGWFRLERVSDDEFNNYKLVFCPQQAEDDKCGDIGISIDHDDGTRRLVVSKNKPLVVQFQKLDKESL | 6.2 µM |
